Measured values reported in US20040093164A1, “Computer system and methods for producing morphogen analogs of human TDF-1” (priority 2002, published 2004).

Columns and labels:
alpha-2 macroglobulin [1] = assay: competition binding assay, immobilized alpha-2 macroglobulin
alpha-2 macroglobulin [2] = molecular target: T1, alpha-2 macroglobulin (Homo sapiens, UniProt P01023); assay: competition binding assay with immobilized alpha-2 macroglobulin and labeled and unlabeled TDF-1; settings: immobilized alpha-2 macroglobulin
T1 sequence (P01023 24-1474): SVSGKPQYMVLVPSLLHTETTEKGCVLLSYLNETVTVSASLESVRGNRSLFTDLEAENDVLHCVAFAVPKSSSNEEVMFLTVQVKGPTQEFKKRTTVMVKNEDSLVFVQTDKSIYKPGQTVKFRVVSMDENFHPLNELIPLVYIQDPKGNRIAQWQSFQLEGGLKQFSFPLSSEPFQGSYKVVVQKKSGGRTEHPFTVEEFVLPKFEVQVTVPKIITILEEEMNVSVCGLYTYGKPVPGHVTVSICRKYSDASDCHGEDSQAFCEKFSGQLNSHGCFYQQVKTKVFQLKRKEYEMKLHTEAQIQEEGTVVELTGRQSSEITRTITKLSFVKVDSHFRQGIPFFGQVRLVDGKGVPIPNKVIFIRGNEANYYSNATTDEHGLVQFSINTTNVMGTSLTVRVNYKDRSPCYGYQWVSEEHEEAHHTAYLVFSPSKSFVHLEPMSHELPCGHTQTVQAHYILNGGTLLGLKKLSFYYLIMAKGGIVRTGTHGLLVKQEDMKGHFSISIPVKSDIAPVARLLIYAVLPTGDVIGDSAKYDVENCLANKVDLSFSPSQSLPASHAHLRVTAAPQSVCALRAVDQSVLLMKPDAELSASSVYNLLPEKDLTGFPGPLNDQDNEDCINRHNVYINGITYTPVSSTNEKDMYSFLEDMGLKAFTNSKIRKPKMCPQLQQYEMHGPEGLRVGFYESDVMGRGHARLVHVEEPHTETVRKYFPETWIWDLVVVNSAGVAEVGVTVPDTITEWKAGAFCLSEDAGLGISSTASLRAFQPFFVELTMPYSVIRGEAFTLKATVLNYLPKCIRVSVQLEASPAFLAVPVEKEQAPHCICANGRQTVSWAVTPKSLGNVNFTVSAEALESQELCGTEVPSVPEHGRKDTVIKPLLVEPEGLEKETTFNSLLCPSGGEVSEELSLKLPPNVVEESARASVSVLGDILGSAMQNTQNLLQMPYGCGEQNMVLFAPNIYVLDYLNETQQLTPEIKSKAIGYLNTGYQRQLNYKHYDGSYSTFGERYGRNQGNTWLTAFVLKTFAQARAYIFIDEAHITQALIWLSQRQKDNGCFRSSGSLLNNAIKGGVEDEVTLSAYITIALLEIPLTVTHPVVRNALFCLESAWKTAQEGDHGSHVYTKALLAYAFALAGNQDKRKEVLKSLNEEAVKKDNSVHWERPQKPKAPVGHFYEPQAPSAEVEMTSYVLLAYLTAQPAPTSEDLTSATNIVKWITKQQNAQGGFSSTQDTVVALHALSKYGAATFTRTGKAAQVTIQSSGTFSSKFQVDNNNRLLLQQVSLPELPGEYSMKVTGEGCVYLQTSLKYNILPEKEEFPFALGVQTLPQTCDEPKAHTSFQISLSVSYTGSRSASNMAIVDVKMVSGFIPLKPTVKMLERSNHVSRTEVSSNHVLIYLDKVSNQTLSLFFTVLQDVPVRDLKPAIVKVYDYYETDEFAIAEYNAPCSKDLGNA
Text: This N-terminal portion of the protein, which is not part of the crystal structure, is positively charged and likely is highly flexible in solution.

ROS cells = assay: effect of alpha-2 macroglobulin on TDF-1 stimulated alkaline phosphatase activity in a ROS cell assay; type: cell-based
[3] = solubility by comparing the partition coefficient of mutein versus wild type hTDF-1 dimer; type: physicochemical; settings: partition coefficient comparison, surmised result
Text: The resulting candidate morphogen analogs can be produced using conventional site-directed mutagenesis methodologies, and the effect of the site-directed modification on the solubility of the hTDF-1 dimer can be measured, for example, by comparing the partition coefficient or “salting out properties” of the modified hTDF-1 dimer versus the native hTDF-1 dimer. See, for example, Scopes (1987) in Protein Purification: Principles and Practice, 2nd Edition (Springer-Verlag); and Englard et al. (1990) Meth. Enzymol. 182: 285-300, both incorporated herein by reference.
The enhanced solubility of the resulting morphogen analog is measured by comparing the partition coefficient of the Ala 63->Ser 63 mutein versus wild type hTDF-1 dimer. […] It is contemplated that additional muteins having multiple hydrophobic to hydrophilic substitutions can be produced and characterized using the protocols described in this Example. The biological activity of the resulting morphogen analogs can be determined using one or more of the TDF-1 activity assays described Example 1.

Molecule “truncated mature TDF-1, wherein the first 22 amino acids have been cleaved from the mature form of TDF-1 in a standard trypsin digest (ligand)” has a fold less affinity than TDF-1 (alpha-2 macroglobulin [1]) of 10 fold.

With “TDF-1: tissue morphogenic protein Transformation and Differentiation Factor-1, SEQ ID NO:1” the “interaction with alpha-2 macroglobulin” value (alpha-2 macroglobulin [2]) was “interact specifically”.

In the case of “Alpha-2 macroglobulin: protease scavenging protein known to bind proteins in serum and target them to the kidney for clearance”, the “interference with TDF-1's ability to stimulate alkaline phosphatase activity” value (ROS cells) is reported as “not to interfere”.

B1: Ala 63->Ser 63 mutein: hTDF-1 with the alanine at position 63 mutated to a serine (protein, UniProt P18075 293-431, looked up, variant A63S)
Bone morphogenetic protein 7: STGSKQRSQNRSKTPKNQEALRMANVAENSSSDQRQACKKHELYVSFRDLGWQDWIIAPEGYSAYYCEGECAFPLNSYMNATNHAIVQTLVHFINPETVPKPCCAPTQLNAISVLYFDDSSNVILKKYRNMVVRACGCH
For B1, the “solubility versus native hTDF-1” value [3] was “higher solubility than native hTDF-1”.
